Test results taken from patent US20250019439A1 (Adimab, published 2025).

Tests used:
ADI-50024 = biological target: T1, ADI-50024; assay: SPR Carterra, yeast anti-ID
T1 construct: anti-CD3 antibody made in CHO cells, captured by anti-human Fc
How it was run: (§1)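 Kinetic constants come from a 1:1 binding-model fit of double-referenced, drift-corrected sensorgrams. Anti-CD3 antibodies (100 nM) were captured via immobilized anti-human Fc, and anti-idiotype binding was recorded at 25° C in HBSTE, with dissociation monitored for 300s.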

ADI-70326 = biological target: T2, ADI-70326; assay: SPR Carterra, yeast anti-ID
T2 construct: anti-CD3 antibody made in CHO cells, captured by anti-human Fc
How it was run: as §1

ADI-70327 = biological target: T3, ADI-70327; assay: SPR Carterra, yeast anti-ID
T3 construct: anti-CD3 antibody made in CHO cells, captured by anti-human Fc
How it was run: as §1

ADI-70330 = biological target: T4, ADI-70330; assay: SPR Carterra, yeast anti-ID
T4 construct: anti-CD3 antibody made in CHO cells, captured by anti-human Fc
T4 sequence (VH, as listed by the source limits assumed, chain 1 of 2): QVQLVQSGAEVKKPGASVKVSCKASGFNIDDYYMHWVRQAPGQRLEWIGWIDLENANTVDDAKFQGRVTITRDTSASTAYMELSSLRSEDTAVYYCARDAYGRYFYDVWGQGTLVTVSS
T4 sequence (VL, as listed by the source limits assumed, chain 2 of 2): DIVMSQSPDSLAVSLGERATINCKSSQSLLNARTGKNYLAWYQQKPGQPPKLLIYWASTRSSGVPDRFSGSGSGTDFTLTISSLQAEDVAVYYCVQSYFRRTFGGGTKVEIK
How it was run: as §1

ADI-67450 = biological target: T5, ADI-67450; assay: SPR Carterra, yeast anti-ID
T5 construct: anti-CD3 antibody made in CHO cells, captured by anti-human Fc
How it was run: as §1

ADI-67445 = biological target: T6, ADI-67445; assay: SPR Carterra, yeast anti-ID
T6 construct: anti-CD3 antibody made in CHO cells, captured by anti-human Fc
How it was run: as §1

ADI-67447 = biological target: T7, ADI-67447; assay: SPR Carterra, yeast anti-ID
T7 construct: anti-CD3 antibody made in CHO cells, captured by anti-human Fc
T7 sequence (VH, as listed by the source limits assumed, chain 1 of 2): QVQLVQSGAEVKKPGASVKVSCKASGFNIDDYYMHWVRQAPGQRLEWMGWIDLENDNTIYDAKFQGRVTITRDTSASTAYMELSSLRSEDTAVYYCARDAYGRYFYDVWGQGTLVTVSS
T7 sequence (VL, as listed by the source limits assumed, chain 2 of 2): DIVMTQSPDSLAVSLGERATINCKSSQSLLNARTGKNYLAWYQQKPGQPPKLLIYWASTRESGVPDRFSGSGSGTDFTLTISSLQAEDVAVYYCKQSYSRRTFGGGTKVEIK
How it was run: as §1

ADI-26909 = biological target: T8, ADI-26909; assay: SPR Carterra, yeast anti-ID
T8 construct: anti-CD3 antibody made in CHO cells, captured by anti-human Fc
T8 sequence (VH, as listed by the source limits assumed, chain 1 of 2): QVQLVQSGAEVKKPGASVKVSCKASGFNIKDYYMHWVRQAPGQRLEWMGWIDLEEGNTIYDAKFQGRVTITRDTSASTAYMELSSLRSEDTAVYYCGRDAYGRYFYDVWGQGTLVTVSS
How it was run: as §1

ADI-26921 IgG = biological target: T9, ADI-26921 IgG; assay: SPR Carterra, yeast anti-ID
T9 construct: anti-CD3 IgG
T9 sequence (VH, as listed by the source limits assumed, chain 1 of 2): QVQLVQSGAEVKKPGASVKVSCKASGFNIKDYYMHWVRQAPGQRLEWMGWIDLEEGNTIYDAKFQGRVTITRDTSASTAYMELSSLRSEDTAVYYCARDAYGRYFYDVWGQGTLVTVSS
T9 sequence (VL, as listed by the source limits assumed, chain 2 of 2): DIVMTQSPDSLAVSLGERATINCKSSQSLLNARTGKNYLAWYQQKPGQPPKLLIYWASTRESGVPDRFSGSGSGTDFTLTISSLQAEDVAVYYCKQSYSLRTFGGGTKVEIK
How it was run: as §1

ADI-26912 = biological target: T10, ADI-26912; assay: SPR Carterra, yeast anti-ID
T10 construct: anti-CD3 antibody made in CHO cells, captured by anti-human Fc
How it was run: as §1

ADI-26915 = biological target: T11, ADI-26915; assay: SPR Carterra, yeast anti-ID
T11 construct: anti-CD3 antibody made in CHO cells, captured by anti-human Fc
How it was run: as §1

ADI-48576 = biological target: T12, ADI-48576; assay: SPR Carterra, yeast anti-ID
T12 construct: pH-dependent anti-CD3 antibody made in CHO cells
How it was run: as §1

ADI-48587 = biological target: T13, ADI-48587; assay: SPR Carterra, yeast anti-ID
T13 construct: pH-dependent anti-CD3 antibody made in CHO cells
T13 sequence (VH, as listed by the source, chain 1 of 2): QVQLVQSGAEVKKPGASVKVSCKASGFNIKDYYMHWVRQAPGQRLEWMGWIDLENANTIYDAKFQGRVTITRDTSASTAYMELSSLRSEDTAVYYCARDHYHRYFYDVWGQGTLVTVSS
T13 sequence (VL, as listed by the source, chain 2 of 2): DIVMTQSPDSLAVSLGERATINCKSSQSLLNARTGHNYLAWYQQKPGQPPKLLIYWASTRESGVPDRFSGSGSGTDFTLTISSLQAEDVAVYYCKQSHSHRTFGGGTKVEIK
How it was run: as §1

ADI-48650 = biological target: T14, ADI-48650; assay: SPR Carterra, yeast anti-ID
T14 construct: pH-dependent anti-CD3 antibody made in CHO cells
T14 sequence (VH, as listed by the source, chain 1 of 2): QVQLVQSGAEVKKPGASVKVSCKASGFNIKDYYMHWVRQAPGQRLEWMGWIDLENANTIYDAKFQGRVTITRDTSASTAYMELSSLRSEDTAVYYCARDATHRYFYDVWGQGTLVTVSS
T14 sequence (VL, as listed by the source, chain 2 of 2): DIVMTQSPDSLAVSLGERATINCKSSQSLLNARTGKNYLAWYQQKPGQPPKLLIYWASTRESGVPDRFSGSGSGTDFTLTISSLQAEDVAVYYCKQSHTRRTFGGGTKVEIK
How it was run: as §1

ADI-74965 = biological target: T15, ADI-74965; assay: SPR Carterra, yeast anti-ID
T15 construct: pH-dependent anti-CD3 antibody made in CHO cells
T15 sequence (VH, as listed by the source, chain 1 of 2): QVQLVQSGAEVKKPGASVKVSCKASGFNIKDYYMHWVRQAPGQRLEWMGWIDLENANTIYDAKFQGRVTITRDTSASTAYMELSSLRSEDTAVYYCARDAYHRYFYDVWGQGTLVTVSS
How it was run: as §1

ADI-74967 = biological target: T16, ADI-74967; assay: SPR Carterra, yeast anti-ID
T16 construct: pH-dependent anti-CD3 antibody made in CHO cells
T16 sequence (VL, as listed by the source, chain 2 of 2): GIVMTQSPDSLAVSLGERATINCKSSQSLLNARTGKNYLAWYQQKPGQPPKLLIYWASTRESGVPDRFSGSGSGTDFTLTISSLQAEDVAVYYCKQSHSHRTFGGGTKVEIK
How it was run: as §1

ADI-74968 = biological target: T17, ADI-74968; assay: SPR Carterra, yeast anti-ID
T17 construct: pH-dependent anti-CD3 antibody made in CHO cells
T17 sequence (VL, as listed by the source, chain 2 of 2): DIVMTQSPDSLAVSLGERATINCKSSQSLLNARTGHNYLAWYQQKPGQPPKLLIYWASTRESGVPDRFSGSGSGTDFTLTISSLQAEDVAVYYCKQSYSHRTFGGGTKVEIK
How it was run: as §1

ADI-76358 = biological target: T18, ADI-76358; assay: SPR Carterra, yeast anti-ID
T18 construct: anti-CD3 antibody made in CHO cells, captured by anti-human Fc
How it was run: as §1

ADI-76360 = biological target: T19, ADI-76360; assay: SPR Carterra, yeast anti-ID
T19 construct: anti-CD3 antibody made in CHO cells, captured by anti-human Fc
How it was run: as §1

ADI-76361 = biological target: T20, ADI-76361; assay: SPR Carterra, yeast anti-ID
T20 construct: anti-CD3 antibody made in CHO cells, captured by anti-human Fc
T20 sequence (VH, as listed by the source, chain 1 of 2): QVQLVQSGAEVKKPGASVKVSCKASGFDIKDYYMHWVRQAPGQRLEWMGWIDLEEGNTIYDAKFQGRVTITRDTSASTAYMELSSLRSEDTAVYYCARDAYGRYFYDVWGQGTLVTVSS
How it was run: as §1

ADI-76362 = biological target: T21, ADI-76362; assay: SPR Carterra, yeast anti-ID
T21 construct: anti-CD3 antibody made in CHO cells, captured by anti-human Fc
How it was run: as §1

CTL-62223 = biological target: T22, CTL-62223; assay: SPR Carterra, yeast anti-ID
T22 construct: also called mosunetuzumab
How it was run: as §1

CTL-62227 = biological target: T23, CTL-62227; assay: SPR Carterra, yeast anti-ID
T23 construct: also called odronextamab
T23 sequence (VH, as listed by the source, chain 1 of 2): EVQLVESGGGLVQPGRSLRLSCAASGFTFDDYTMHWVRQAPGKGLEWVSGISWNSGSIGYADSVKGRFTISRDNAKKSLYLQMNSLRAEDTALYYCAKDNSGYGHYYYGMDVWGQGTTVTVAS
T23 sequence (VL, as listed by the source, chain 2 of 2): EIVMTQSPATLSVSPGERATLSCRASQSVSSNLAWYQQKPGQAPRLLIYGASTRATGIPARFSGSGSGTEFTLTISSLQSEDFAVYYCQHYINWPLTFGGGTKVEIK
How it was run: as §1

CTL-62228 = biological target: T24, CTL-62228; assay: SPR Carterra, yeast anti-ID
T24 construct: also called glofitamab
How it was run: as §1

CTL-62240 = biological target: T25, CTL-62240; assay: SPR Carterra, yeast anti-ID
T25 construct: also called ONO-4685
T25 sequence (VH, as listed by the source, chain 1 of 2): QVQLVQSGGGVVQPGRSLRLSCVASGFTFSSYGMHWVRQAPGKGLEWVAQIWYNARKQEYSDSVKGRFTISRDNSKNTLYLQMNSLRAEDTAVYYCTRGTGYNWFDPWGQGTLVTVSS
T25 sequence (VL, as listed by the source, chain 2 of 2): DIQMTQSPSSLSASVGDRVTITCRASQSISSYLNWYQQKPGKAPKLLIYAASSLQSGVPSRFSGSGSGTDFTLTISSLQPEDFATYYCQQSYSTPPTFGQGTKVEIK
How it was run: as §1

ADI-26906 IgG = biological target: T26, ADI-26906 IgG; assay: SPR Carterra avidity, yeast anti-ID
T26 construct: anti-CD3 IgG
T26 sequence (VH, as listed by the source limits assumed, chain 1 of 2): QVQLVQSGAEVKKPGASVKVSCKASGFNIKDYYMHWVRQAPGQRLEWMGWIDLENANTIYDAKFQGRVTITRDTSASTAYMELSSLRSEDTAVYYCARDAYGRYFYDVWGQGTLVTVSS
How it was run: as §1

ADI-26913 IgG = biological target: T27, ADI-26913 IgG; assay: SPR Carterra avidity, yeast anti-ID
T27 construct: anti-CD3 IgG
T27 sequence (VH, as listed by the source limits assumed, chain 1 of 2): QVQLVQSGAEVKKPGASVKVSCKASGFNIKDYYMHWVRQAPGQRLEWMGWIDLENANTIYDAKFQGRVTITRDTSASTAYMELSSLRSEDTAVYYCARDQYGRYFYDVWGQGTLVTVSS
How it was run: as §1

ADI-26916 IgG = biological target: T28, ADI-26916 IgG; assay: SPR Carterra avidity, yeast anti-ID
T28 construct: anti-CD3 IgG
T28 sequence (VH, as listed by the source, chain 1 of 2): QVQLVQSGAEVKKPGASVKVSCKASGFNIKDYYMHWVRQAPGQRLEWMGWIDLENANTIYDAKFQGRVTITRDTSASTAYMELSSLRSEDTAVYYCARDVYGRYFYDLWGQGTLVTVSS
How it was run: as §1

ADI-26943 = biological target: T29, ADI-26943; assay: SPR Carterra avidity, yeast anti-ID
T29 construct: anti-CD3 antibody made in CHO cells, captured by anti-human Fc
How it was run: as §1

ADI-48592 = biological target: T30, ADI-48592; assay: SPR Carterra avidity, yeast anti-ID
T30 construct: pH-dependent anti-CD3 antibody made in CHO cells
How it was run: as §1

ADI-74966 = biological target: T31, ADI-74966; assay: SPR Carterra avidity, yeast anti-ID
T31 construct: pH-dependent anti-CD3 antibody made in CHO cells
How it was run: as §1

ADI-76357 = biological target: T32, ADI-76357; assay: SPR Carterra avidity, yeast anti-ID
T32 construct: anti-CD3 antibody made in CHO cells, captured by anti-human Fc
How it was run: as §1

ADI-76359 = biological target: T33, ADI-76359; assay: SPR Carterra avidity, yeast anti-ID
T33 construct: anti-CD3 antibody made in CHO cells, captured by anti-human Fc
How it was run: as §1

ADI-22523 Fab = biological target: T34, ADI-22523 Fab; assay: BLI; tip anti-ID IgG, solution ADI-22523 Fab
T34 construct: anti-CD3 Fab by papain digestion of the IgG
How it was run: (§2)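 Sensors carrying captured anti-ID IgG were equilibrated 30 min in assay buffer before a 60 s baseline. Equilibrium KD was taken as koff/kon from a 1:1 model.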

ADI-22523 IgG = biological target: T35, ADI-22523 IgG; assay: BLI; tip anti-ID IgG, solution ADI-22523 IgG
T35 construct: anti-CD3 IgG
How it was run: as §2

ADI-26919 = biological target: T36, ADI-26919; assay: SPR Carterra avidity, yeast anti-ID, *koff limit
T36 construct: anti-CD3 antibody made in CHO cells, captured by anti-human Fc
How it was run: as §1

ADI-26920 IgG = biological target: T37, ADI-26920 IgG; assay: SPR Carterra avidity, yeast anti-ID, *koff limit
T37 construct: anti-CD3 IgG
How it was run: as §1

ADI-26924 = biological target: T38, ADI-26924; assay: SPR Carterra avidity, yeast anti-ID, *koff limit
T38 construct: anti-CD3 antibody made in CHO cells, captured by anti-human Fc
T38 sequence (VH, as listed by the source, chain 1 of 2): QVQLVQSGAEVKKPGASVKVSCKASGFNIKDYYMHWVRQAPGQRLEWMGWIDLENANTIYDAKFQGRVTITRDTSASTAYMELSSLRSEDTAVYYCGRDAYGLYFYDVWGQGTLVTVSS
How it was run: as §1

B1: ADI-30254 (antibody, V domains shown)
VH: EVQLLESGGGLVQPGGSLRLSCAASGFTFSSYAMSWVRQAPGKGLEWVSTISGSGGSTYYADSVKGRFTISRDNSKNTLYLQMNSLRAEDTAVYYCARLGGRRGSGSSYYYYYGMDVWGQGTTVTVSS
VL: not shown
notes: anti-ID IgG
binding result (ADI-50024): no binding (tested: up to 200 nM)
binding result (ADI-70326): no binding (tested: up to 200 nM)
binding result (ADI-70327): no binding (tested: up to 200 nM)
binding result (ADI-70330): no binding (tested: up to 200 nM)
binding result (ADI-67450): no binding (tested: up to 200 nM)
binding result (ADI-67445): no binding (tested: up to 200 nM)
binding result (ADI-67447): no binding (tested: up to 200 nM)
binding result (ADI-26909): no binding (tested: up to 200 nM)
binding result (ADI-26921 IgG): no binding (tested: up to 200 nM)
binding result (ADI-26912): no binding (tested: up to 200 nM)
binding result (ADI-26915): no binding (tested: up to 200 nM)
binding result (ADI-48576): no binding (tested: up to 200 nM)
binding result (ADI-48587): no binding (tested: up to 200 nM)
binding result (ADI-48650): no binding (tested: up to 200 nM)
binding result (ADI-74965): no binding (tested: up to 200 nM)
binding result (ADI-74967): no binding (tested: up to 200 nM)
binding result (ADI-74968): no binding (tested: up to 200 nM)
binding result (ADI-76358): no binding (tested: up to 200 nM)
binding result (ADI-76360): no binding (tested: up to 200 nM)
binding result (ADI-76361): no binding (tested: up to 200 nM)
binding result (ADI-76362): no binding (tested: up to 200 nM)
binding result (CTL-62223): no binding (tested: up to 200 nM)
binding result (CTL-62227): no binding (tested: up to 200 nM)
binding result (CTL-62228): no binding (tested: up to 200 nM)
binding result (CTL-62240): no binding (tested: up to 200 nM)
binding result (ADI-26906 IgG): binds
binding result (ADI-26913 IgG): binds
Kd (ADI-26916 IgG): 56 nM
Kd (ADI-26943): 27 nM
binding result (ADI-48592): binds
binding result (ADI-74966): binds
binding result (ADI-76357): binds
Kd (ADI-76359): 27 nM
Kd (ADI-22523 Fab): 50.3 nM
Kd (ADI-22523 IgG): 3.34 nM
Kd (ADI-26919): 33 nM
Kd (ADI-26920 IgG): 21 nM
Kd (ADI-26924): 21 nM
